Assay results: paper PMC7766840, “Preclinical Evaluation of the Copper-64 Labeled GRPR-Antagonist RM26 in Comparison with the Cobalt-55 Labeled Counterpart for PET-Imaging of Prostate Cancer” (Molecules, 2020)

How the values were obtained:
in vivo = assay: in vivo; set-up: species or system BALB/c nu/nu mice; conditions: female, BALB/c nu/nu, mouse, total radioactivity
Method: (§1) For biodistribution studies, 16 female BALB/c nu/nu mice (age 15–16 weeks) bearing PC-3 xenografts (inoculated subcutaneously with 8 × 10^6 PC-3 cells three weeks before the experiment) were randomized into groups of four. The mice were intravenously injected into the tail vein with a mixture of [^64Cu]Cu-X-RM26 and [^57Co]Co-X-RM26 and were euthanized at 3 and 24 h p.i. Injected activity was adjusted to 300 kBq/mouse for ^64Cu- and 40 kBq/mouse for ^57Co-labeled conjugates. The total injected peptide mass was adjusted to 45 pmol/mouse (in 100 μL). Blood, kidney, pancreas, liver, lung, bone, muscle, tumor, spleen, stomach, small intestines, and the rest of the GI tract with content were collected, weighed, and their activity content was measured in a gamma-counter. The ^64Cu activities were determined from measurements performed on the day of the experiment, while the ^57Co activities were measured after two weeks to allow the ^64Cu to decay. Tissue uptake of the radiopeptides was calculated as a percent of injected dose per gram tissue (%ID/g), with exception of the GI tract for which tissue uptake was calculated as %ID per whole sample.

PC-3 xenografts = assay: in vivo; set-up: species or system BALB/c nu/nu mice; conditions: mouse; for Blood uptake / Kidney uptake / Liver uptake / Small int. uptake / Stomach uptake / Tumor uptake / Lung uptake / Pancreas uptake / GI tract uptake / Bone uptake / Spleen uptake: female, BALB/c nu/nu; for GI tract uptake: iv, 45 pmol/mouse
Method: as §1

Structure (SMILES)	Blood uptake (PC-3 xenografts; 3 h) [%ID/g]	Kidney uptake (PC-3 xenografts; 3 h) [%ID/g]	Liver uptake (PC-3 xenografts; 3 h) [%ID/g]	Small int. uptake (PC-3 xenografts; 3 h) [%ID/g]	Stomach uptake (PC-3 xenografts; 3 h) [%ID/g]	Tumor uptake (PC-3 xenografts; 3 h) [%ID/g]	Lung uptake (PC-3 xenografts; 24 h) [%ID/g]	Pancreas uptake (PC-3 xenografts; 24 h) [%ID/g]	GI tract uptake (PC-3 xenografts; 3 h) [%ID]	GI tract uptake (PC-3 xenografts; 24 h) [%ID]	Pancreas uptake (PC-3 xenografts; 3 h) [%ID/g]	Blood uptake (PC-3 xenografts; 24 h) [%ID/g]	Liver uptake (PC-3 xenografts; 24 h) [%ID/g]	Tumor uptake (PC-3 xenografts; 24 h) [%ID/g]	other results
CC(C)C[C@H](NC(=O)C[C@H](O)[C@H](CC(C)C)NC(=O)[C@H](Cc1c[nH]cn1)NC(=O)CNC(=O)[C@@H](NC(=O)[C@H](C)NC(=O)[C@H](Cc1c[nH]c2ccccc12)NC(=O)[C@H](CCC(N)=O)NC(=O)[C@@H](Cc1ccccc1)NC(=O)COCCOCCNC(=O)CN1CCN(CC(=O)O)CCN(CC(=O)O)CC1)C(C)C)C(N)=O [[^57Co]Co-NOTA-PEG2-RM26]	0.02	0.51	0.06	0.34	0.59	3.27	0.02	0.02	0.26	0.02	–	–	–	–	tissue uptake at 3 h (in vivo; Bone uptake): 0.11 %ID/g; tissue uptake at 24 h (in vivo; Muscle uptake): 0.01 %ID/g; tissue uptake at 24 h (in vivo; Spleen uptake): 0.04 %ID/g; tissue uptake at 24 h (in vivo; Tumor uptake): 0.31 %ID/g
CC(C)C[C@H](NC(=O)C[C@H](O)[C@H](CC(C)C)NC(=O)[C@H](Cc1c[nH]cn1)NC(=O)CNC(=O)[C@@H](NC(=O)[C@H](C)NC(=O)[C@H](Cc1c[nH]c2ccccc12)NC(=O)[C@H](CCC(N)=O)NC(=O)[C@@H](Cc1ccccc1)NC(=O)COCCOCCNC(=O)CCC(C(=O)O)N1CCN(CC(=O)O)CCN(CC(=O)O)CC1)C(C)C)C(N)=O (stereo partly drawn) [[^64Cu]Cu-NODAGA-PEG2-RM26, metal not drawn]	–	0.90	0.28	0.24	0.27	2.31	0.04	0.04	1.02	0.03	0.27	0.02	0.16	0.16	Bone uptake (PC-3 xenografts; 3 h): 0.08 %ID/g; Lung uptake (PC-3 xenografts; 3 h): 0.12 %ID/g; Spleen uptake (PC-3 xenografts; 3 h): 0.05 %ID/g; Bone uptake (PC-3 xenografts; 24 h): 0.13 %ID/g; Kidney uptake (PC-3 xenografts; 24 h): 0.12 %ID/g; Small int. uptake (PC-3 xenografts; 24 h): 0.05 %ID/g; Spleen uptake (PC-3 xenografts; 24 h): 0.02 %ID/g; Stomach uptake (PC-3 xenografts; 24 h): 0.08 %ID/g; Muscle uptake (PC-3 xenografts; 24 h): 0.00 %ID/g
CC(C)C[C@H](NC(=O)C[C@H](O)[C@H](CC(C)C)NC(=O)[C@H](Cc1c[nH]cn1)NC(=O)CNC(=O)[C@@H](NC(=O)[C@H](C)NC(=O)[C@H](Cc1c[nH]c2ccccc12)NC(=O)[C@H](CCC(N)=O)NC(=O)[C@@H](Cc1ccccc1)NC(=O)COCCOCCNC(=O)CN1CCN(CC(=O)O)CCN(CC(=O)O)CC1)C(C)C)C(N)=O [[^64Cu]Cu-NOTA-PEG2-RM26, metal not drawn]	0.06	–	0.59	0.72	1.19	–	–	–	0.76	0.07	1.31	0.04	0.49	0.42	tissue uptake at 24 h (in vivo; Bone uptake): 0.15 %ID/g; tissue uptake at 3 h (in vivo; Kidney uptake): 0.46 %ID/g; tissue uptake at 24 h (in vivo; Kidney uptake): 0.25 %ID/g; tissue uptake at 3 h (in vivo; Muscle uptake): 0.02 %ID/g; tissue uptake at 24 h (in vivo; Small int. uptake): 0.12 %ID/g; tissue uptake at 3 h (in vivo; Spleen uptake): 0.1 %ID/g; tissue uptake at 24 h (in vivo; Stomach uptake): 0.14 %ID/g; tissue uptake at 3 h (in vivo; Tumor uptake): 3.94 %ID/g
